How the values were obtained:
GCN4 minimal bZIP = GCN4 minimal bZIP (Saccharomyces cerevisiae, UniProt P03069 P03069:228-281); assay: EMSA; enhanced by pX; conditions: protein: synthetic; tags: synthetic peptide per text; chain copies: 2; label: 32P
ZTA minimal bZIP = ZTA minimal bZIP (Epstein-Barr virus, UniProt P03206 P03206:175-229); assay: EMSA; stimulated by pX; conditions: chain copies: 2; label: 32P
[1] = target: T1, BR-CC (GCN4 basic region with idealized leucine zipper) (Saccharomyces cerevisiae); assay: EMSA; stimulated by pX; conditions: protein: synthetic; tags: synthetic peptide; chain copies: 2; label: 32P
T1 chain: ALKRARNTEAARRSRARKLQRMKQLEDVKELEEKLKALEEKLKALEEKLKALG

ATF-2 (GST fusion) = target: T2, ATF-2 (GST fusion) (UniProt P15336 P15336:144-505); assay: EMSA; low binding without pX, greatly increased by pX; conditions: tags: GST (pGEX-2T); chain copies: 2; label: 32P
T2 sequence: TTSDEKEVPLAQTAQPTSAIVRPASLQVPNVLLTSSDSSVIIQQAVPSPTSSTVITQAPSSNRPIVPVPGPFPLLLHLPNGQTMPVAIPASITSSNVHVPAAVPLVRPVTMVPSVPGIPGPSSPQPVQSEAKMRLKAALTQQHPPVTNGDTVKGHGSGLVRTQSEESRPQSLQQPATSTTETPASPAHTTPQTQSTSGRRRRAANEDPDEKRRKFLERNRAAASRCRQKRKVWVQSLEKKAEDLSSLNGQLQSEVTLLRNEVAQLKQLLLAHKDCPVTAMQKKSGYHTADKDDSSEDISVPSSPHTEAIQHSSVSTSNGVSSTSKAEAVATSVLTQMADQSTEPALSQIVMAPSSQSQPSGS

CREB (GST fusion) = CREB (GST fusion) (UniProt P16220-1 P16220-1:23-341); assay: EMSA; low binding without pX, greatly increased by 100 ng pX; conditions: tags: GST (pGEX-2T); chain copies: 2; label: 32P
pX = pX (Hepatitis B virus, UniProt P03165 P03165:1-154); assay: EMSA; no detectable interaction of pX with DNA without transcription factor; conditions: tags: His (pRSET-C); label: 32P
ATF-1 (GST fusion) = target: T3, ATF-1 (GST fusion) (UniProt P18846 P18846:57-271); assay: EMSA; low binding without pX, greatly increased by pX; TFIIB or E. coli extract no effect; conditions: tags: GST (pGEX-2T); chain copies: 2; label: 32P
T3 sequence: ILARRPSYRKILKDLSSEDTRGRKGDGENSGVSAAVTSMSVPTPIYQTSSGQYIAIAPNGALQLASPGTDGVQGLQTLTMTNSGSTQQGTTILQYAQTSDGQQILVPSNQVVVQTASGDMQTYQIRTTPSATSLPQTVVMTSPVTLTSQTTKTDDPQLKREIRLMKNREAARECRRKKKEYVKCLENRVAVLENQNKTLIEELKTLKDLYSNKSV

Sequence of CREB (GST fusion) (P16220 other isoform, or with tags, fused parts or gaps): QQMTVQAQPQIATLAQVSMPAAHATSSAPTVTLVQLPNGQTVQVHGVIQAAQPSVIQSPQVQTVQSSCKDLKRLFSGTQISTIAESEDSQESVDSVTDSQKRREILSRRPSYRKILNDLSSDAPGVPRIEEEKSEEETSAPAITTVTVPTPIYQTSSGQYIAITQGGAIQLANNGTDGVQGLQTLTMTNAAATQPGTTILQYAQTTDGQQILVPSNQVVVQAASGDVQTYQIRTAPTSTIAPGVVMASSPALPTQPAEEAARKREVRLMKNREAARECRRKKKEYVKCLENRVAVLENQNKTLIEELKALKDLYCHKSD
Sequence of pX (P03165 whole entry, the tested form may be a part, one chain of several): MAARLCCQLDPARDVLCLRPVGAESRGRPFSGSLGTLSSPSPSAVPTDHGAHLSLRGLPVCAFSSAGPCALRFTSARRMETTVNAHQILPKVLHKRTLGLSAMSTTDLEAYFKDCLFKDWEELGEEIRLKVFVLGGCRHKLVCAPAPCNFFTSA
Sequence of ZTA minimal bZIP (P03206 175-229, one chain of several): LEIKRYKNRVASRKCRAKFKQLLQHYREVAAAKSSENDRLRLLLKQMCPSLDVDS
Sequence of GCN4 minimal bZIP (P03069 228-281, one chain of several): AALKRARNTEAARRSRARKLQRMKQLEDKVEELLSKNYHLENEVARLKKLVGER

| Binder | binding result (GCN4 minimal bZIP) | binding result (ZTA minimal bZIP) | binding result [1] | binding result (ATF-2 (GST fusion)) | binding result (CREB (GST fusion)) | binding result (pX) | binding result (ATF-1 (GST fusion)) |
| --- | --- | --- | --- | --- | --- | --- | --- |
| collagenase TRE oligoduplex (dsDNA) DNA 1: AGCTTTGACTCATCCCGGA DNA 2: TCCGGGATGAGTCAAAGCT | binds | binds | binds |  |  |  |  |
| CRE core oligoduplex (dsDNA) DNA 1: TCCTAAGTGACGTCAGTGGAA DNA 2: TTCCACTGACGTCACTTAGGA |  |  |  | binds | binds | no binding | binds |

From US6051373, “Methods for screening for inhibitors of the transcription-enhancing activity of the X protein of hepatitis B virus” (Scriptgen Pharmaceuticals, Inc.)
